These are literature values, as cited in patent US20090317412A1, “Induction of an immune response against streptococcus pneumoniae polyaccharides” (priority 2004, published 2009).

The data set concerns the target T1, murine I-A^b molecules (Mus musculus, UniProt P14434+P14483).
T1 sequence (P14434 24-256): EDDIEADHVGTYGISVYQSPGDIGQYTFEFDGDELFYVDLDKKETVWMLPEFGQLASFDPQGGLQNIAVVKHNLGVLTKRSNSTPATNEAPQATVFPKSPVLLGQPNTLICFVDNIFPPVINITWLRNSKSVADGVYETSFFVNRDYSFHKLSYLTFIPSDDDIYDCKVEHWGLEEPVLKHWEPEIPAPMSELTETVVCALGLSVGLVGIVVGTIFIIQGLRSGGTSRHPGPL
T1 sequence (P14483 28-265): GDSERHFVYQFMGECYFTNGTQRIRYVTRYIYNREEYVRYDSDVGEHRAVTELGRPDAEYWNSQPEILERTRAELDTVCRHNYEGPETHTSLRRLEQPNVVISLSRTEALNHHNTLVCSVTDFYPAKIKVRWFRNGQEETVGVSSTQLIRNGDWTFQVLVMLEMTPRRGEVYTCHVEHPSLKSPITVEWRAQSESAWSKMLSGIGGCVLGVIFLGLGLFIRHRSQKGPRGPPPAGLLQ

Turning to AKXVAAWTLKAAA [pan DR binding peptide], the “binding to murine I-A^b molecules” value was “binds”.
